From the nanobody polyreactivity screen of Harvey et al. (2022)

Test: yeast display, Sf9 membrane polyspecificity reagent, FACS + sequencing; frameworks hold sequencing errors
Summary of the method: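 Sorting gates, low and high (top ~1%), were placed on anti-HA fluorescence to track expression and on streptavidin fluorescence to track reagent binding. A clone's polyreactivity label is taken from the gate it came out of. The reagent was 10% biotinylated, detergent-solubilized Sf9 membrane, applied for 1 hour at 4 °C to galactose-induced yeast display cells.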

Sequence	polyreactivity (PSR sort gate)
QVQLVESGGGLVQAGGSLRLSCAASGRTIYRYALGWYRQAHGKERELVSRIRSGGSTNYADSVKGRFTISRDNAKNTVYLQMNSLKPEDTAVYYCAARVLDLGKNTYYRYALGYWGQGTQVTVSS	high polyreactivity
QVQLVESGGGLVQAGGSLRLSCAASGRTIYYYAMGWYRQAPGKEREFVAAISWHGGSTYYADSVKGRFTISRDNAKNTVYLQMNSLKPEDTAVYYCAADIYLRGFHYDYWGQGTQVTVSS	low polyreactivity
QVQLVESGGGLVQAGGSLRLSCAASGRTLAGNAMGWYRQAPGQERELVAAISQGGGSTYYADSVKGRFTISRDKAKNTVYLQMNSLKPEDTAGYYCAAEIPRLWASFATLWYDYWGQGTQVTVSS	low polyreactivity
QVQLVESGGGLVQAGGSLRLSCAASGRTLAPYAMGWYRQAPGKARELVADIDRGGGSTYYADSVKGSFTISRDNAKNTVYLQMNSLKPEDTAVYYCNVDEPGVLVAYSLDFWGQGSQVTVSS	low polyreactivity
QVQLVESGGGLVQAGGSLRLSCAASGRTLAPYAMGWYRQAPGKERELVAISTIGGSTYYADSVKGRFTISRDNAKNTVYLQMNSLKPEDTAVYYCAADGNSTGVYLDGGEGFAYDYWGQGTQVTVSS	low polyreactivity
QVQLVESGGGLVQAGGSLRLSCAASGRTLARNAMGWDRQAPGKERELVASINGRTTRTYYADSVKGRFTISRDNAKNTVYLQMNSLKPEDTAVYYCAADPPGYVYGKRYYWGQGTQVTVSS	high polyreactivity
QVQLVESGGGLVQAGGSLRLSCAASGRTLARNAMGWYRQAPGKEREFVASINGRTTRTYYADSVKGRFTISRDNAKNTVYLQMNSLKPEDTAVYYCAADPPGYVYGKRYYWGQGTQVTVSS	high polyreactivity
QVQLVESGGGLVQAGGSLRLSCAASGRTLARNAMGWYRQAPGKERELVASINGRTTRTYYADSVKGRFTISRDNAKNTVYLQMNSLKPADTAVYYCAAAVRYRKYNYWGQGTQVTVSS	high polyreactivity
QVQLVESGGGLVQAGGSLRLSCAASGRTLDKYTLGWYRQAPGKERELVASITSGGSTNYADSVKGRFTISRDNAKNTVYLQMNTLKPEDTAVYYCNKRRRVSKMGQGYDYWGQGTQVTVTS	low polyreactivity
QVQLVESGGGLVQAGGSLRLSCAASGRTLDKYTMGGYRQAPGKERELVASITSGGSTNYADSVKGRFTISRDNAKNTVYLQMNSLKPEDTAVYYCASGNWVLWNPGYDYWGQGTQVTVSS	low polyreactivity
QVQLVESGGGLVQAGGSLRLSCAASGRTLDVNAMGWYRQAPGKEKELVAAIDWGVGTTYYADSVKGRFTISRDNAKNTVYLQMNSLKPEDTAVYYCSVDVYYSVYGYPVQYYYWGQGNQVTVSS	high polyreactivity
QVQLVESGGGLVQAGGSLRLSCAASGRTLFPYAMGWYIQAPGKERELVAAITSRGTSTYYADSVKGRFTISRDIAKNNVYLQMNSLKPEDTAVYYCAKDGWFWGWRFDYCGQGTQVTVSS	low polyreactivity
QVQLVESGGGLVQAGGSLRLSCAASGRTLFYYTMGWYRQAPGKERELVAAITTGGRTYYADSVKGRFTISRDNAKNTVYLQMNSLKPEDTAVYYCAAHTYYYPVGFNYWGQGTQVTVSS	low polyreactivity
QVQLVESGGGLVQAGGSLRLSCAASGRTLFYYTMGWYRQAPGKVRELVAAITTGGRTYYADSVKGRFTISRDNAKNTVYLQMNSLNPEDTAVYYCAAHTYYYPVGFNYWGPGTQVTVSS	low polyreactivity
QVQLVESGGGLVQAGGSLRLSCAASGRTLGANAMGWYRQAPGKERELVAAITDSGGSTYYADSVKGRFTISRDNAKNTVYLQMNSLKPEDTAVYYCAAKQAYSSTYVWPIFDYWGQGTQVTVSS	low polyreactivity
QVQLVESGGGLVQAGGSLRLSCAASGRTLGWYAMGWYRQAPGKERELVATISITGGSTYYADSVKGRFTISRDNAKNTVYLQMNSLKPEDTAVYYCAARHGSRRRYYYWGQGTQVTVSS	high polyreactivity
QVQLVESGGGLVQAGGSLRLSCAASGRTLHAYTMGWYRQAPGKERELVAAITRGGGNTYYADSVKGRFTISRDNAKNTVYLQMNSLKPEDTAVYYCAKDYGYQGHTRTLYWAYLEYDYWGQGTQVTVSS	low polyreactivity
QVQLVESGGGLVQAGGSLRLSCAASGRTLHYYAMGWYRQAPGKERELVAAISRTGSTDYADSVKGRFTISRDNAKNTVYLQMNSLKPEDTAVYYCAAYYRYRSGRYYYWGQGTQVTVSS	high polyreactivity
QVQLVESGGGLVQAGGSLRLSCAASGRTLIYNAMGWYRQAPGKERELVAAITGGGGRTYYADSVKGRFTISRDNAQNTVYLQMNSLKPEDTAVYYCAAGETFEMNYWGQGTQVTVSS	low polyreactivity
QVQLVESGGGLVQAGGSLRLSCAASGRTLKWYAMGWDRQAPGKERELVAAISWSGGSTYYADSVKGRFTISRDNAKNTVYLQMNSLKPEDTSVYYCAVAVTSYSSKKLYYWGQGTQVTVSS	low polyreactivity
QVQLVESGGGLVQAGGSLRLSCAASGRTLKYNAMGWYRQAPGKERELVAAISYSGSSTYYADSVNGRFTISRDKAKHTVYLQMNSLKPEDTEVYYCNTARPTAAYDYWGQGTQVTVSS	low polyreactivity
QVQLVESGGGLVQAGGSLRLSCAASGRTLLYYAMGWYRQAPGKERELVAAISRSGGSTSYADSVKGRFTISRDNAKNTVYLQMNSLKPEDTAVYYCNAPRYYYWGQGTQVTVSS	high polyreactivity

Sequence	polyreactivity (PSR sort gate)
QVQLVESGGGLVQAGGSLRLSCAASGRTLPGYVMGWYRQEPGKERELVSTISSGDRTNYADSVKGRFTISRDNAKNTVYLQMNSLKPEETAVYYCAAPYVASGYYIWSPWLYDSWGQGTQVTVSS	low polyreactivity
QVQLVESGGGLVQAGGSLRLSCAASGRTLPVYAMGWYRQAPGKERELVAAITYSGGSTSYADYVKGRFTISRDNAKNTVYLQMNTLKPDDTAVYYCAAGYRYSEYYYWGQGTQVTVSS	low polyreactivity
QVQLVESGGGLVQAGGSLRLSCAASGRTLQGYAMGWYRQAPGKERELVAAISRGGGSTYADSVKGRFTISRDNAKNTVYLQMNSLKPEDTAVYYCAAVRGIYGGHYFRYEYWGQGTQVTVSS	high polyreactivity
QVQLVESGGGLVQAGGSLRLSCAASGRTLQRNAMGWYRQAPGKERELVADISWSGASTYYADSVKGRFTISRDNAKNTVYLQMNSLKPEDTAVYYCAATYIDRGNIYDYWGQGTQVTVSS	high polyreactivity
QVQLVESGGGLVQAGGSLRLSCAASGRTLQWNAMGWYRQAPGKERELVATISSGGSTKYADSVKGRFTISRDNAKNTVYLQMNSLKPEDTAVYYCNAQPFGMYYHRYYYWGQGTQVTVSS	low polyreactivity
QVQLVESGGGLVQAGGSLRLSCAASGRTLRKYAMGWYRQAPGKERELVAAISSSGGNTYYADSVKGRFTISRDNAKNTVYLQMNSLKPEDTAVYYCAAGFYYPTARVGYYYWGQGTQVTVSS	high polyreactivity
QVQLVESGGGLVQAGGSLRLSCAASGRTLRTYAMGWYRQAPGKERELVAAITSSGGRTYYADSVKGRFTISRDNAKNTVYLQMNSLKPEDTAVYYCAAARYYYGGDYWGQGTQVTVSS	high polyreactivity
QVQLVESGGGLVQAGGSLRLSCAASGRTLRTYTMGWYRQAPGKERELVAAISSSDDSTYYADSVKGRFTISRDNEKNTVYLQMNSLKPEDNAVYSCAKDGLYPTEYGYWGQGTQVTVSS	high polyreactivity
QVQLVESGGGLVQAGGSLRLSCAASGRTLRYYAMGWYRQAPGKERELVAAISRRGGRTYYADSVKGRFTISRDNAKNTVYLQMNSLKPEDTAVYYCNARYDVYRWRYDYDYWGQGTQVTVSS	high polyreactivity
QVQLVESGGGLVQAGGSLRLSCAASGRTLSHYAMGWYRQAPGKERELVAAISQSGGSTRYADSVKGRFTISRDNAKNTVYLQMISLKPEDTAVYYCAVRQLYSYPGDRRGYYWGQGTQVTVSS	high polyreactivity
QVQLVESGGGLVQAGGSLRLSCAASGRTLSRNAMGWYRQAPGKERELVAAINYSGGITYYADSVKGRFTISRDNAKNTVYLQMNSLKPEDTAVYYCAATVKYWGQGTQVTVSS	high polyreactivity
QVQLVESGGGLVQAGGSLRLSCAASGRTLSVNAMGWYRQAPGKERELVAAITWGGGSTYYADSVKGRFTISRDNAKNTVYLQMNSLKPEDTAVYYCNADPGWTELEYDYWGQGTQVTVSS	low polyreactivity
QVQLVESGGGLVQAGGSLRLSCAASGRTLSYNTMGWYRQAPGKEREFVAANTWSGGSTNYADSVKGRFTISRDNAKNTVYLQMNSLKPEDTAVYYCNADYLTVSWSIPEHVTVRLMYYWGQGTQVTVSS	low polyreactivity
QVQLVESGGGLVQAGGSLRLSCAASGRTLTGNAMGWYRQAPGKERELVAAISWSAGSTYYADSVKGRFTISRDNAKNTVYLQMNSLKPEDTAVYYCALTLRRNLVRMGYWGLGTQVTVSS	high polyreactivity
QVQLVESGGGLVQAGGSLRLSCAASGRTLTQYAMGWYRQAPGTERELVAAINTSGDSTYYADSVKGRFTISRDNAKNTVYLQMNSLKPEDTAVYYCAADGFWSQLYHLYNGYDYWGQGTQVTVSS	low polyreactivity
QVQLVESGGGLVQAGGSLRLSCAASGRTLVPYAMGWYRQAPGKERELVAAINSSGGSTYYADSVKGRFTISRDNAKNTVYLQMNSLKPEDTAVYYCAATRYSKYYWGQGTQVTVSS	high polyreactivity
QVQLVESGGGLVQAGGSLRLSCAASGRTLVTNAMGWYRQAPGKERELVAAIDSDDGTTYYADSVKGRFTISRDNAKKTVYLQMNSLKPEDTAVYYCAAESYWRDDYWGQGTQVTVSS	low polyreactivity
QVQLVESGGGLVQAGGSLRLSCAASGRTLWSYTMGWYRQAPGKERELVARITIGGSTNYADSVKGRFTISRDNAKNTVYLQMNSLKPEDTAVYYCNARASYSYGSYLSKSYGFDYWGQGTQVTVSS	high polyreactivity
QVQLVESGGGLVQAGGSLRLSCAASGRTLYGNVMGWYRQAPGKERELVAAISRRGGSTSYADSVKGRFTISRDNAKNTVYLQMNSLKPEDTAVYYCAAGRQRYAFKYYYWGQGTQVTVSS	high polyreactivity
QVQLVESGGGLVQAGGSLRLSCAASGRTLYHNAMGWYRQAPGKERELVAAISYRGTRTYYADSVKGRFTISRDKAKNTVYLQKNSLTPEDTAVYYCAADTTYATKSDYWGQGTQVTVSS	high polyreactivity
QVQLVESGGGLVQAGGSLRLSCAASGRTLYPYAMGWYRQAPGKERELVAAISSTGGRTYYADSVKGRFTISRDNAKNTVYLQMNSLKPEDTAVYYCAAIYRAQYDYWGQGTQVTVSS	high polyreactivity
